Fold improvement of apparent binding affinity over 3G146 data for one substance are collected here from paper doi:10.1101/2023.11.20.567881.

For assay [1], the target named is yeast surface-displayed DARPin 3G146 variant 2-G4 (G150S). In words: flow cytometry on cells.
Assay [2] deals with yeast surface-displayed DARPin 3G146 variant 2-H3 (G237S). The assay can be described thus: flow cytometry on cells.

Regarding “EGFP-His6 (from UniProt P42212 1-238) (natural protein)”, the figures for the fold improvement of apparent binding affinity over 3G146 in assay [1] and in assay [2] were 8 fold and 28 fold, respectively.
